From patent US20190359710A1
One block for each binder: values may come before it.

Assays:
[1] = biological target: CD33 and CD123 together on double-positive human AML cells; experiment: cell-based or functional assay
[2] = biological target: CD33 and CD123 together on double-positive human AML cells; experiment: calibrated flow cytometry on MOLM13 cells (CD33/CD123 double-positive)

- % specific lysis of MOLM-13 cells at 1 nM SPM-2, 4 hr time point [1]: 30.7%
- Biol. Activity EC50 [pM], redirected lysis (RDL), 3 h, E:T=10:1 (MNC:MOLM-13) [1]: 14 pM
- EC50 (pM), RDL cytolysis of primary MNCs of AML patient P1 with LAK cells [1]: 131 pM
- EC50 (pM), RDL cytolysis of primary MNCs of AML patient P2 with LAK cells [1]: 20 pM
- EC50 (pM), RDL cytolysis of primary MNCs of AML patient P3 with LAK cells [1]: 67 pM
- EC50 (pM), RDL cytolysis of primary MNCs of AML patient P4 with LAK cells [1]: 32 pM
- EC50 (pM), RDL cytolysis of primary MNCs of AML patient P5 with LAK cells [1]: 242 pM
- EC50 (pM), RDL cytolysis of primary MNCs of AML patient P6 with LAK cells [1]: 155 pM
- EC50 (pM), RDL cytolysis of primary MNCs of AML patient P7 with LAK cells [1]: 79 pM
- EC50 (pM), RDL cytolysis of primary MNCs of AML patient P8 with LAK cells [1]: 133 pM
- EC50 (pM), RDL cytolysis of primary MNCs of AML patient P9 with LAK cells [1]: 166 pM
- EC50 (pM), RDL cytolysis of primary MNCs of AML patient P10 with LAK cells [1]: 51 pM
- EC50 (pM), RDL cytolysis of primary MNCs of AML patient P11 with LAK cells [1]: 1080 pM
- EC50 (pM), RDL cytolysis of primary MNCs of AML patient P12 with LAK cells [1]: 38 pM
- EC50 (pM), RDL cytolysis of primary MNCs of AML patient P13 with LAK cells [1]: 245 pM
- EC50 (pM), RDL cytolysis of primary MNCs of AML patient P14 with LAK cells [1]: 229 pM
- EC50 (pM), RDL cytolysis of primary MNCs of AML patient P15 with LAK cells [1]: 177 pM
- EC50 (pM), RDL cytolysis of primary MNCs of AML patient P16 with LAK cells [1]: 758 pM
- EC50 (pM), RDL cytolysis of primary MNCs of AML patient P17 with LAK cells [1]: 125 pM
- EC50 (pM), RDL cytolysis of primary MNCs of AML patient P18 with LAK cells [1]: 221 pM
- EC50 (pM), RDL cytolysis of primary MNCs of AML patient P19 with LAK cells [1]: 406 pM
- EC50 (pM), RDL cytolysis of primary MNCs of AML patient P20 with LAK cells [1]: 251 pM
- EC50 (pM), RDL cytolysis of primary MNCs of AML patient P21 with LAK cells [1]: 22 pM
- EC50 (pM), RDL cytolysis of primary MNCs of AML patient P22 with LAK cells [1]: 225 pM
- EC50 (pM), RDL cytolysis of primary MNCs of AML patient P23 with LAK cells [1]: 476 pM
- EC50 (pM), RDL cytolysis of primary MNCs of AML patient P24 with LAK cells [1]: 127 pM
- EC50 (pM), RDL cytolysis of primary MNCs of AML patient P25 with LAK cells [1]: 541 pM
- EC50 (pM), RDL cytolysis of primary MNCs of AML patient P26 with LAK cells [1]: 58 pM
- EC50 (pM), RDL cytolysis of primary MNCs of AML patient P27 with LAK cells [1]: 10 pM
- EC50 (pM), RDL cytolysis of primary MNCs of AML patient P28 with LAK cells [1]: 560 pM
- EC50 (pM), RDL cytolysis of primary MNCs of AML patient P29 with LAK cells [1]: 70 pM
- EC50 (pM), RDL lysis of CD34-enriched MNCs of AML patient P9 [1]: 43 pM
- EC50 (pM), RDL lysis of CD34-enriched MNCs of AML patient P11 [1]: 681 pM
- EC50, standard RDL assay, MOLM-13 targets, thawed LAK cells, 4 hr, MNC:Target 10:1 [1]: 0.024 nM
B1: single chain triplebody SPM-2, hu(33-ds16-ds123RK) (protein)
chain: EVQLVESGGGLIQPGGSLRLSCAASGFPLTSYGVSWVRQPPGKGLEWLGVIWGDGSTNYHSALISRFTISRDNSKNTLYLQMNSLRAEDTAVYYCARDTYYPYYAMDYWGQGTTVTVSSGGGGSGGGGSGGGGSDIQMTQSPSSLSASVGDRVTITCKASQDVSTAVAWYQQKPGKAPKLLIYSASYRYTGVPSRFSGSGSGTDFTLTISSLQPEDFATYYCQQHYSTPLTFGQGTKLEIKRGGGGSGGGGSGGGGSGGGGSDIVLTQSPSSLSASVGDRVTITCKASQSVDFDGDSFMNWYQQKPGKAPKLLIYTTSNLESGVPSRFSASGSGTDFTLTISSLQPEDFATYYCQQSNEDPYTFGCGTKVEIKRGGGGSGGGGSGGGGSGGGGSEVQLVESGGGDVQPGGSLRLSCAFSGFSLRTSGMGVGWIRQAPGKCLEWVAHIWWDDDKRYNPSVKGRFTISKDTSSNTVYLQMNSLRAEDTAVYYCAQINPAWFAYWGQGTLVTVSSGGGGSGGGGSGGGGSGGGGSEVQLVESGGGLVQPGGSLRLSCAASGFTFTDYYMSWVRQAPGKCLEWLALIRSKADGYTTEYSASVKGRFTISRDDSKNSLYLQMNSLKTEDTAVYYCARDAAYYSYYSPEGAMDYWGQGTSVTVSSGGGGSGGGGSGGGGSDIQMTQSPSSLSASVGDRVTITCKASQNVDSAVAWYQQKPGKAPKALIYSASYRYSGVPSRFSGSGSGTDFTLTISSLQPEDFATYYCQQYYSTPWTFGCGTKVEIKRGGGGSHHHHHH

- Kd [2]: 11 nM
B2: candidate triplebody hu[33-ds16-ds123RK] before polishing of the sequence (protein, not shown: small tags and cut ends)
chain: EVQLVESGGGLIQPGGSLRLSCAASGFPLTSYGVSWVRQPPGKGLEWLGVIWGDGSTNYHSALISRFTISRDNSKNTLYLQMNSLRAEDTAVYYCARDTYYPYYAMDYWGQGTTVTVSSGGGGSGGGGSGGGGSDIQMTQSPSSLSASVGDRVTITCKASQDVSTAVAWYQQKPGKAPKLLIYSASYRYTGVPSRFSGSGSGTDFTLTISSLQPEDFATYYCQQHYSTPLTFGQGTKLEIKRGGGGSGGGGSGGGGSGGGGSDIVLTQSPSSLSASVGDRVTITCKASQSVDFDGDSFMNWYQQKPGKAPKLLIYTTSNLESGVPSRFSASGSGTDFTLTISSLQPEDFATYYCQQSNEDPYTFGCGTKVEIKRGGGGSGGGGSGGGGSGGGGSEVQLVESGGGDVQPGGSLRLSCAFSGFSLRTSGMGVGWIRQAPGKCLEWVAHIWWDDDKRYNPSVKGRFTISKDTSSNTVYLQMNSLRAEDTAVYYCAQINPAWFAYWGQGTLVTVSSGGGGSGGGGSGGGGSGGGGSEVQLVESGGGLVQPGGSLRLSCAASGFTFTDYYMSWVRQAPGKCLEWLALIRSKADGYTTEYSASVKGRFTISRDDSKNSLYLQMNSLKTEDTAVYYCARDAAYYSYYSPEGAMDYWGQGTSVTVSSGGGGSGGGGSGGGGSDIQMTQSPSSLSASVGDRVTITCKASQNVDSAVAWYQQKPGKAPKALIYSASYRYSGVPSRFSGSGSGTDFTLTISSLQPEDFATYYCQQYYSTPWTFGCGTKVEIKR
